# T1: CD20 (human, UniProt P11836 1-297)
# T1 construct: whole, on cells; also called CD20 cell surface antigen; CD20 on SKW 6.4 human B lymphoma cells
# T1 sequence (looked up): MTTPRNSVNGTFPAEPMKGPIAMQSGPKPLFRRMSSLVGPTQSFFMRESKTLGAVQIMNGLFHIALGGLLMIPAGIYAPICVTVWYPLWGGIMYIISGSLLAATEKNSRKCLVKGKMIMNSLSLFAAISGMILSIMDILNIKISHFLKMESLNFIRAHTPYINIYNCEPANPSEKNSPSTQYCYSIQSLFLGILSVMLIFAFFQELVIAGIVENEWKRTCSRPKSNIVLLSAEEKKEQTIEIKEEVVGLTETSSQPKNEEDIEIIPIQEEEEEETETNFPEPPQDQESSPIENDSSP
# B1: AME133 Fab (humanized anti-CD20 with fully human germline framework regions) (Fab, V domains shown)
# VH: EVQLVQSGAEVKKPGESLKISCKGSGRTFTSYNMHWVRQMPGKGLEWMGAIYPLTGDTSYNQKSKLQVTISADKSISTAYLQWSSLKASDTAMYYCARSTYVGGDWQFDVWGKGTTVTVSS
# VL: EIVLTQSPGTLSLSPGERATLSCRASSSVPYIHWYQQKPGQAPRLLIYATSALASGIPDRFSGSGSGTDFTLTISRLEPEDFAVYYCQQWLSNPPTFGQGTKLEIKR
# notes: also called monovalent Fab
# B2: wild-type butyrylcholinesterase (protein, UniProt P06276 29-602, looked up)
# Cholinesterase: EDDIIIATKNGKVRGMNLTVFGGTVTAFLGIPYAQPPLGRLRFKKPQSLTKWSDIWNATKYANSCCQNIDQSFPGFHGSEMWNPNTDLSEDCLYLNVWIPAPKPKNATVLIWIYGGGFQTGTSSLHVYDGKFLARVERVIVVSMNYRVGALGFLALPGNPEAPGNMGLFDQQLALQWVQKNIAAFGGNPKSVTLFGESAGAASVSLHLLSPGSHSLFTRAILQSGSFNAPWAVTSLYEARNRTLNLAKLTGCSRENETEIIKCLRNKDPQEILLNEAFVVPYGTPLSVNFGPTVDGDFLTDMPDILLELGQFKKTQILVGVNKDEGTAFLVYGAPGFSKDNNSIITRKEFQEGLKIFFPGVSEFGKESILFHYTDWVDDQRPENYREALGDVVGDYNFICPALEFTKKFSEWGNNAFFYYFEHRSSKLPWPEWMGVMHGYEIEFVFGLPLERRDNYTKAEEILSRSIVKRWANFAKYGNPNETQNNSTSWPVFKSTEQKYLTLNTESTRIMTKLRAQQCRFWTSFFPKVLEMTGNIDEAEWEWKAGFHRWNNYMMDWKNQFNDYTSKKESCVGL
# B3: 6-6 variant (protein)
# chain: EDDIIIATKNGKVRGMNLTVFGGTVTAFLGIPYAQPPLGRLRFKKPQSLTKWSDIWNATKYANSCCQNIDQSFPGFHGSEMWNPNTDLSEDCLYLNVWIPAPKPKNATVLIWIYGGGFQTGTSSLHVYDGKFLARVERVIVVSMNYRVGALGFLALPGNPEAPGNMGLFDQQLALQWVQKNIAAFGGNPKSVTLFGESAGAASVSLHLLSPGSHSLFTRAILQSGSANAPWAVTSLYEARNRTLNLAKLTGCSRENETEIIKCLRNKDPQEILLNEAFVVPYGTPLGVNFGPTVDGDFLTDMPDILLELGQFKKTQILVGVNKDEGTWFLVMGAPGFSKDNNSIITRKEFQEGLKIFFPGVSEFGKESILFHYTDWVDDQRPENYREALGDVVGDYNFICPALEFTKKFSEWGNNAFFYYFEHRSSKLPWPEWMGVMHGYEIEFVFGLPLERRDNYTKAEEILSRSIVKRWANFAKYGNPNETQNNSTSWPVFKSTEQKYLTLNTESTRIMTKLRAQQCRFWTSFFPKVLEMTGNIDEAEWEWKAGFHRWNNYMMDWKNQFNDYTSKKESCVGL
# modifications: synthetic butyrylcholinesterase variant
# Assays:
# [1] = cited from earlier work
# [2] = CPT-11 conversion to SN-38, fluorescent HPLC detection, conditioned media of transiently expressed BChE variants; assay type: biochemical; conditions: for CPT-11 conversion to SN-38 (SN-38 formation by HPLC), in words: 20 mM CPT-11, 72 hours, 37° C., versus mock / wild-type
# Method: Butyrylcholinesterase variants were assayed for CPT-11 conversion activity using fluorescent High Performance Liquid Chromotography (HPLC) detection of SN-38 formation as described in Dodds and Rivory, Mol. Pharmacol. 56: 1346-1353 (1999), which is incorporated herein by reference. Briefly, conditioned media from transiently expressed BChE variants were exposed to 20 mM CPT-11 for 72 hours at 37° C. and analyzed by HPLC for SN-38 formation (peak at about 4 minutes column retention time).
# [3] = test system: SW48 colon carcinoma cells; test: MTT cytotoxicity assay of CPT-11 activated by BChE variants; conditions: CPT-11 at 4 mM incubated 72 hours with enzyme, cells exposed at 0.5 mM for 72 hours, versus mock
# Method: Clinically relevant concentrations of CPT-11 (0.5-10 mM) were exposed to BChE variants for 24-72 hours at 37° C. Briefly, CPT-11 at 4 mM was incubated for 72 hours with expressed wild-type BChE, the 6-6 variant, or F227A/L286Q variant. SW48 colon carcinoma cells were exposed to the activated CPT-11 at a concentration of 0.5 mM for 72 hours and cell viability measured by the MTT method. The MTT (3-(4,5-dimethylthiazolyl-2)-2,5-diphenyltetrazolium bromide) assay is commercially available and can be used to measure cell viability based on the ability of a cell to reduce a redox sensitive dye. Note the 6-6 variant is a quadruple mutant referenced as A328W/Y332M/S287G/F227A (SEQ ID NO: 16) in the nomenclature used throughout to describe variants. The 6-6 variant contains the following codons at variant positions: GCG encodes alanine at amino acid position 227, GGT encodes glycine at amino acid position 287, ATG encodes methionine at amino acid position 332, and TGG encodes tryptophane at amino acid position 328.
# [4] = in vitro; Pavillard et al. 2002; cited from earlier work
# CD20 = target: T1, CD20; test: method not stated
# [5] = o-nitrophenyl acetate (o-NPA) hydrolysis assay of antibody-captured butyrylcholinesterase variants (carboxylesterase activity); assay type: biochemical; conditions: antibody capture/normalization, absorbance 405 nm
# Method: A modification of this assay that measures o-NPA activity of butyrylcholinesterase variants normalized by capturing with an anti-butyrylcholinesterase antibody was performed as described below.
# Protocol to Determine Carboxylesterase activity of Captured Butyrylcholinesterase by o-Nitrophenyl acetate: • 1) Coat 96-well Immulon 2 plates with rabbit anti-human butyrylcholinesterase (Dako #A0032) at 10 mg/ml in PBS (100 ml/well) overnight at 4° C. • 2) Remove coating solution and block plate with 3% BSA in PBS (250 ml/well) for 2 hours at room temperature. • 3) Add 200 ml butyrylcholinesterase variant conditioned media and incubate at RT for 2 hrs. • 4) Wash plate 3 times with 250 ml/well PBS. • 5) Add 85 ml/well 0.1 M potassium phosphate pH 7.0 • 6) Add 13.6 mg o-NPA to 100 ml acetonitrile, mix to dissolve. Add 100 ml of this stock to 6.3 mls water and mix well. • 7) Wash plate 3 times with PBS. • 8) Add 15 ml of diluted o-NPA substrate. • 9) Read absorbance at 405 nm.
# Conditioned media from butyrylcholinesterase variants that were transiently expressed in 293T cells was tested using the above described anti-butyrylcholinesterase antibody capture/normalization assay for carboxylesterase activity. […] The first variant shown in FIG. 1 is F227A (see left-most bar). The level of activity of the other variants can be compared to the level of activity of F227A. […]
# [6] = BChE-mediated CPT-11 hydrolysis, SN38 quantitated by reverse-phase HPLC with fluorescence detection; Km by Hofstee plot; assay type: biochemical; conditions: 37° C., 24 hours, CPT-11 1-80 μM, Hofstee plot
# Method: BChE plasmid variants were expressed transiently in the human embryonic kidney cell line 293T and assayed for activity at 72 hours post-transfection. Primary screening of variants was performed by indirect measurement of enzymatic activation of CPT-11 (FIG. 2) in SW48 colon carcinoma cell cytotoxicity assays. […] Functional hits identified in these assays were characterized by sequence analysis of the corresponding DNA from the original preps. […] Enzyme was incubated at 37° C. for 24 hours with CPT-11 over a range of concentrations from 1-80 μM. […] Velocity (v) is in light absorbance units at 540 nm. Substrate concentration [s] is μM CPT-11.
# Samples were acidified and resolved by reverse-phase HPLC on a NovaPak C18 column to separate SN38 from unactivated CPT-11. SN38 peak area under the curve (AUC) was used to compare CPT-11 activation by the wild-type enzyme to the optimized BChE.4-1 variant.
molecule,measurement,setting,value
"CCc1c2c(nc3ccc(OC(=O)N4CCC(N5CCCCC5)CC4)cc13)-c1cc3c(c(=O)n1C2)COC(=O)[C@]3(O)CC [CPT-11, 7-ethyl-10-[4-(1-piperidino)-1-piperidine]carbonyloxycamptothecin]",plasma concentrations of CPT-11,"[1]; patients treated with 200 mg/m2 CPT-11, for at least 24 hours, Ducreux et al. 2003",above 0.1 μM
same,plasma peak concentration versus dose,[1]; single agent at up to 500 mg/m^2,dose-proportional
F227A/L286Q,Fold improvement in CPT-11 conversion,"[2]; compared to wild-type butyrylcholinesterase, conditioned media exposed to 20 mM CPT-11 for 72 hours at 37° C., SN-38 by HPLC, conservative values",>10 fold
same,"CPT-11 conversion to SN-38 (SN-38 formation by HPLC), in words",[2]; conditioned media,increased CPT-11 conversion to SN-38
same,CPT-11 mediated cytotoxicity in SW48 colon carcinoma cells,[3],increased tumor cell cytotoxicity
"CCc1c2c(nc3ccc(O)cc13)-c1cc3c(c(=O)n1C2)COC(=O)[C@]3(O)CC [SN38, 7-ethyl-10-hydroxycamptothecin]",cytotoxicity relative to CPT-11,[4],greater than 1000 fold
B1,Kd,CD20,1 nM
B2,level of carboxylesterase activity relative to F227A,[5],approximately 50%
same,conversion of CPT-11,"[2]; HPLC assay, conditioned media",less than 1%
same,"CPT-11 conversion to SN-38 (SN-38 formation by HPLC), in words",[2]; conditioned media,did not show detectable levels of SN-38
same,Km,[6],40 µM
same,CPT-11 mediated cytotoxicity in SW48 colon carcinoma cells,[3],significantly enhanced
B3,CPT-11 mediated cytotoxicity in SW48 colon carcinoma cells,[3],increased tumor cell cytotoxicity

# Reference: patent US20050136044A1, “Butyrylcholinesterase variants that alter the activity of chemotherapeutic agents” (priority 2003, published 2005)
